Results taken from patent US20080182978A1, “ANTI-NGF ANTIBODIES AND METHODS USING SAME” (RINAT NEUROSCIENCE CORP, priority 2002, published 2008).

What was measured:
[1] = molecular target: T1, human NGF (Homo sapiens, UniProt P01138); test: BIAcore affinity determination assay (kon, koff, KD of purified Fabs); format: binding; conditions: Fab on immobilized human NGF
Procedure: Affinities of anti-NGF Fabs and monoclonal antibodies were determined using the BIAcore300™ surface plasmon resonance (SPR) system (BIAcore, INC, Piscaway N.J.). CM5 chips were activated with N-ethyl-N′-(3-dimethylaminopropyl)-carbodimide hydrochloride (EDC) and N-hydroxysuccinimide (NHS) according to the supplier's instructions. Human NGF was diluted into 10 mM sodium acetate pH 4.0 and injected over the activated chip at a concentration of 0.005 mg/mL. Using variable flow time across the individual chip channels, two ranges of antigen density were achieved: 100-200 response units (RU) for detailed kinetic studies and 500-600 RU for screening assays. The chip was blocked with ethanolamine. […] HBS-EP buffer (0.01M HEPES, pH 7.4, 0.15 NaCl, 3 mM EDTA, 0.005% Surfactant […]) was used as running buffer for all the BIAcore assays.
Serial dilutions (0.1-10× estimated KD) of purified Fab samples were injected for 1 min at 100 μL/min and dissociation times of up to 2 h were allowed. The concentrations of the Fab proteins were determined by ELISA and/or SDS-PAGE electrophoresis using as a standard a Fab of known concentration (as determined by amino acid analysis). Kinetic association rates (kon) and dissociation rates (koff) were obtained simultaneously by fitting the data to a 1:1 Langmuir binding model (Karlsson, R. Roos, H. Fagerstam, L. Petersson, B. (1994). Methods Enzymology 6. 99-110) using the BIAevaluation program. Equilibrium dissociation constant (KD) values were calculated as koff/kon.
The binding affinities to human NGF of Fabs E3 and 3C were measured using BIAcore analysis according to the manufacturer's instructions and as described above, except that 100 RU NGF was used on chip to prevent a rebinding effect. Briefly, several concentrations of antibodies (Fabs) were injected for 2 minutes onto a CM5 chip with 100 RU of immobilized human NGF on it, and permitted to dissociate for 1800 seconds. Mouse antibody 911 (Fab) was analyzed as a control. Data was analyzed using BIAevaluation software following the manufacturer's instructions. E3 bound human NGF with a KD of approximately 0.07 nM (and with a kon of about 6.0e5 M-1s-1, and a koff of about 4.2e-5s-1).

[2] = molecular target: interaction of human NGF with trkA (Homo sapiens, UniProt P01138); test: BIAcore: blocking of NGF binding to trkA on chip; conditions: 2.5 nM human NGF preincubated one hour; Fab concentration equal to NGF concentration
Procedure: (§1) Antibody E3 (interchangeably termed 3E) was selected for further analysis based on the high binding affinity. To test the ability of E3 to prevent the interaction of NGF with the NGF receptors trkA and p75, 2.5 nM of human NGF was premixed and incubated for one hour with 0 to 50 nM of antibody E3 (Fab). After the incubation, samples were injected at 10 ul/minute on a BIAcore CM5 chip containing 260 RU of p75 (channel 2) and 600 RU of trkA (channel 3), and percent binding was determined.

[3] = molecular target: interaction of human NGF with p75 (Homo sapiens, UniProt P01138); test: BIAcore: blocking of NGF binding to p75 on chip; conditions: 2.5 nM human NGF preincubated one hour; Fab concentration equal to NGF concentration
Procedure: as §1

[4] = molecular target: T1, human NGF; test: Mouse E17/18 trigeminal neuron survival assay, NGF; format: cell-based; conditions: saturating NGF (400 pM); 48 hours
Procedure: (§2) The ability of antibody E3 to specifically block NGF activity was evaluated by measurement of the capacity of the antibody to inhibit survival of mouse E17/18 trigeminal neurons in vitro in the presence of saturating concentrations of NGF, the NGF-related neurotrophin NT3, or the NGF-unrelated neurotrophic factor, macrophage stimulating protein (MSP). The survival of mouse E17/18 trigeminal neurons is a sensitive assay to evaluate the NGF-blocking activity of anti-NGF antagonist antibodies because NGF is required to support survival of these neurons at higher concentrations than the level of NGF required to support survival of E13.5 TG neurons).
(§3) The survival assay was conducted as follows: time mated pregnant Swiss Webster female mice were euthanised by CO2 inhalation. The uterine horns were removed and the embryos (at embryonic day 17 or 18) were extracted and decapitated. The trigeminal and nodose ganglia were dissected and cleaned. The ganglia were then trypsinised, mechanically dissociated and plated at a density of 100-300 cells per well in defined, serum-free medium in 4-well plates (Greiner) coated with poly-L-ornithine and laminin.
(§4) E17/18 trigeminal neurons were grown either without added neurotrophic factors (negative control) or in the presence of saturating concentrations of human NGF (400 pM and 15 pM) (positive control); NT3 (400 pM); or MSP (600 pM). […]

[5] = molecular target: T2, NT3 (Homo sapiens, UniProt P20783); test: Mouse E17/18 trigeminal neuron survival assay, NT3; format: cell-based; conditions: saturating NT3; antibody up to 200 nM; 48 hours
T2 sequence (P20783 139-257): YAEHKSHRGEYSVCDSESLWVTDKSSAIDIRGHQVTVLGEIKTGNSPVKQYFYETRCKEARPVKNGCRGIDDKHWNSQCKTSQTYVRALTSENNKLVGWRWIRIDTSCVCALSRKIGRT
Procedure: as §2, §3, §4

[6] = molecular target: macrophage stimulating protein (MSP) (Homo sapiens, UniProt P26927); test: Mouse E17/18 trigeminal neuron survival assay, MSP; format: cell-based; conditions: MSP 600 pM; antibody up to 200 nM; 48 hours
Procedure: as §2, §3, §4

[7] = molecular target: T3, BDNF (Homo sapiens, UniProt P23560); test: Mouse E17 nodose neuron survival assay, BDNF; format: cell-based; conditions: BDNF 400 pM; antibody up to 200 nM; 48 hours
T3 sequence (P23560 129-247): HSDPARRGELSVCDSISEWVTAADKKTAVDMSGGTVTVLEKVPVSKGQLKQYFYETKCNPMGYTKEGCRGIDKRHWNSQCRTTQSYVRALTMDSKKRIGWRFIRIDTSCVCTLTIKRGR
Procedure: (§5) The ability of antibody E3 to specifically block NGF activity was also evaluated by measurement of the capacity of the antibody to inhibit survival of mouse nodose E17 neurons in the presence of saturating concentrations of BDNF or NT4/5. Survival of nodose neurons is supported by BDNF or NT4/5; therefore, survival of these neurons is a sensitive assay to evaluate the BDNF or NT4/5-blocking ability of the anti-NGF antagonist antibody.
as §3
(§6) E17 nodose neurons were grown either in the absence of added neurotrophic factors (negative control), or with saturating concentrations of BDNF (400 pM) (positive control) or NT4/5 (400 pM) or NGF unrelated growth factor […]. High concentrations of neurotrophins were used, as the goal of this experiment was to test specificity of the antibodies. […]

[8] = molecular target: T4, NT4/5 (Homo sapiens, UniProt P34130); test: Mouse E17 nodose neuron survival assay, NT4/5; format: cell-based; conditions: NT4/5 400 pM; antibody up to 200 nM; 48 hours
T4 sequence (P34130 81-210): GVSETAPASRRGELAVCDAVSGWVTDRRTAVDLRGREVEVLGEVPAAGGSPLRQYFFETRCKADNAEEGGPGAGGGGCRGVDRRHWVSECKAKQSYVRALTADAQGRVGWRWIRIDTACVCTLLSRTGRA
Procedure: as §5, §3, §6

[9] = molecular target: LIF (Homo sapiens, UniProt P15018); test: Mouse E17 nodose neuron survival assay, LIF; format: cell-based; conditions: LIF 2.5 nM; antibody up to 200 nM; 48 hours
Procedure: as §5, §3, §6

T1 sequence (P01138 122-241): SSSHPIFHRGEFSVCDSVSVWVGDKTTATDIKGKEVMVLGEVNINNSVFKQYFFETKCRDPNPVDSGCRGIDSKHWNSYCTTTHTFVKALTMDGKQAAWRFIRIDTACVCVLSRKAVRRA
interaction of human NGF with p75, sequence (P01138 122-241): as above
interaction of human NGF with trkA, sequence (P01138 122-241): as above
LIF, sequence (P15018 23-202, species assumed): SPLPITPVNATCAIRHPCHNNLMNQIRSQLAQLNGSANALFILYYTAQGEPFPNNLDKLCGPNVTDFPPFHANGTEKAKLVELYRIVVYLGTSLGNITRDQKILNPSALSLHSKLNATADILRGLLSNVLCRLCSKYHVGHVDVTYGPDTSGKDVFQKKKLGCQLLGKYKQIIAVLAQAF
macrophage stimulating protein (MSP), sequence (P26927 19-711, species assumed): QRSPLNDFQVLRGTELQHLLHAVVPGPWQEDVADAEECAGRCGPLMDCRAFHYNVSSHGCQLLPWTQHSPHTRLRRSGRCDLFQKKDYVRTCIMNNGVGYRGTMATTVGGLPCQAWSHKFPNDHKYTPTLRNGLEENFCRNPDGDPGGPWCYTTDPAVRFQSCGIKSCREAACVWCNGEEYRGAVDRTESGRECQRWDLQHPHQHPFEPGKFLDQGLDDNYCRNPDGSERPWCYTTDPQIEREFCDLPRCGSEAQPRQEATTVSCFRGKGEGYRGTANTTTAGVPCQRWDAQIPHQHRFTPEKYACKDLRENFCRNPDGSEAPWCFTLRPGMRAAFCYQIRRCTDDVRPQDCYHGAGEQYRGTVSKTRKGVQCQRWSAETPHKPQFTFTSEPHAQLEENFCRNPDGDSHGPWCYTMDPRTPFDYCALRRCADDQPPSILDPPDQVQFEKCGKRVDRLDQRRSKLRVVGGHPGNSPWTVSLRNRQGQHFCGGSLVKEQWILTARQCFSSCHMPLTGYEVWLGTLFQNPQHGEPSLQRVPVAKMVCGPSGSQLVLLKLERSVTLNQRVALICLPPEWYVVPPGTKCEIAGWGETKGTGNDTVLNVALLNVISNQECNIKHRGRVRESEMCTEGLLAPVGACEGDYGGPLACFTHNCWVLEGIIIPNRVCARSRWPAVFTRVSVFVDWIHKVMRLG

B1: E3 (Fab): Fab fragment of humanized anti-NGF antibody E3 (antibody, V domains shown)
VH: QVQLQESGPGLVKPSETLSLTCTVSGFSLIGYDLNWIRQPPGKGLEWIGIIWGDGTTDYNSAVKSRVTISKDTSKNQFSLKLSSVTAADTAVYYCARGGYWYATSYYFDYWGQGTLVTVS
VL: DIQMTQSPSSLSASVGDRVTITCRASQSISNNLNWYQQKPGKAPKLLIYYTSRFHSGVPSRFSGSGSGTDFTFTISSLQPEDIATYYCQQEHTLPYTFGQGTKLEIKRT
**Q.** B1 was tested. Which koff [1] did it give?
**A.** Its koff is less than 4e-05 s⁻¹.

**Q.** What about the kon [1] of the same molecule?
**A.** Its kon is 600000 M⁻¹ s⁻¹.

**Q.** And the “NGF binding to trkA (percent maximum RU)” value [2]?
**A.** Its value is “no NGF binding was observed”.

**Q.** What about the “NGF binding to p75 (percent maximum RU)” value [3] of the same molecule?
**A.** The value was “no NGF binding was observed”.

**Q.** And the “survival of E17/18 trigeminal neurons promoted by NGF” value [4]?
**A.** Its value is “totally blocked”.

**Q.** What about the “survival of E17/18 trigeminal neurons promoted by NT3” value [5] of the same molecule?
**A.** Its value is “did not inhibit”.

**Q.** And the “survival of E17/18 trigeminal neurons promoted by MSP” value [6]?
**A.** The value was “did not inhibit”.

**Q.** What about the “survival of E17 nodose neurons promoted by BDNF” value [7] of the same molecule?
**A.** The value was “did not inhibit”.

**Q.** What about the “survival of E17 nodose neurons promoted by NT4/5” value [8] of the same molecule?
**A.** Its value is “did not inhibit”.

**Q.** And the “survival of E17 nodose neurons promoted by LIF” value [9]?
**A.** The value was “did not inhibit”.
